One experiment deals with human fibrinogen (human) (UniProt P02671). The experiment in a line: affinity blot, dilution series of antigen and fibrinogen.
Experiment [1] deals with human prothrombin (human) (UniProt P00734). The experiment is described as follows: affinity blot, dilution series of antigen and prothrombin.

On to “87 kDa fibrinogen-binding protein (coagulase)”, for which the amount of protein detected with 10 ng/ml of fibrinogen with human fibrinogen (human) came out at 0.1 ng.

As to “60 kDa fibrinogen-binding protein (Eap, extracellular adherence protein)”, the amount of protein detected with 10 ng/ml of fibrinogen with human fibrinogen (human) amounted to 0.1 ng. For the same substance, the amount of protein detected with 10 ng/ml of prothrombin in experiment [1] turned out to be 0.1 ng.

These data come from patent US20020173462A1.
